Laboratory results published in patent US20220064331A1 (Genentech, published 2022).
Values belong to the binder of their own block, whether it stands above or below them.

How the values were obtained:
[1] = biological target: T1, human KLB expressed on cells (human, UniProt Q86Z14 53-1044); experiment: FACS on cells expressing hKLB, hKLA and chimeras; domain of hKLB recognized
T1 construct: on transfected 293 / HEK293 cells; also called hKLB; beta-Klotho

hKLB-ECD-HIS protein = biological target: T2, hKLB-ECD-HIS protein (human, UniProt Q86Z14 53-996); experiment: ELISA on hKLB-ECD-HIS protein, chimeric IgG (murine variable, hIgG1 constant regions), OD450
T2 construct: recombinant hKLB-ECD-HIS protein (R&D Systems); also called recombinant KLB-ECD protein; not shown: HIS tag
Description: In addition, some of the antibodies were ranked by ELISA. For these experiments, anti-KLB antibodies that were chimeric recombinant IgG with murine variable regions and hIgG1 constant regions were used to measure binding to hKLB-ECD-HIS protein.

rabbit KLB (+N-ter FLAG) = biological target: T3, rabbit KLB (+N-ter FLAG) (rabbit); experiment: FACS on transfected HEK293T cells
T3 construct: expressed from KLB cDNA on HEK293T cells and read by FACS
T3 chain: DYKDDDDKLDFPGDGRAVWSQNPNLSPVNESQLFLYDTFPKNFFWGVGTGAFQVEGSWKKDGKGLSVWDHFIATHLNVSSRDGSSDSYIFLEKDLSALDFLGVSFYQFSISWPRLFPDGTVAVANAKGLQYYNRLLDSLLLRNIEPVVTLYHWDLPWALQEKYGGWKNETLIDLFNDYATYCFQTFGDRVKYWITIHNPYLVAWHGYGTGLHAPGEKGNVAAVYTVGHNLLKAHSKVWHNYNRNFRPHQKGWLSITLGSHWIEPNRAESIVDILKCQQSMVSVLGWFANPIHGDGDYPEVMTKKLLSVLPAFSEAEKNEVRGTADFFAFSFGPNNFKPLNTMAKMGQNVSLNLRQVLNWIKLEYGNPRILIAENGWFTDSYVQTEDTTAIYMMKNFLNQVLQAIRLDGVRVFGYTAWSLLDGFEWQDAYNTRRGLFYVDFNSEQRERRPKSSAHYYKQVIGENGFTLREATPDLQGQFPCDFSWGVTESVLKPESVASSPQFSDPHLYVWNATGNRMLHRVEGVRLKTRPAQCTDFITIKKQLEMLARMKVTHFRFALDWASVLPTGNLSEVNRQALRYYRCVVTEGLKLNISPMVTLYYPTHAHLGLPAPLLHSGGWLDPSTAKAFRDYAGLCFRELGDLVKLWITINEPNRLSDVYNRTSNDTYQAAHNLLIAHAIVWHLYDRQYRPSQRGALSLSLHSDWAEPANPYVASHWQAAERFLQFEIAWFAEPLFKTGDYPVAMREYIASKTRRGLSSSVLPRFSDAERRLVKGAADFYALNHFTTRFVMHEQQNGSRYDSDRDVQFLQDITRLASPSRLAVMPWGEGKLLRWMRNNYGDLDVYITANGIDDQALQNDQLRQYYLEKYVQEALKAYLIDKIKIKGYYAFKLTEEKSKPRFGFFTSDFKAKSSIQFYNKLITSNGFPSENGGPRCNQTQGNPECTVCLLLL
Method: (§1) Species cross reactivity of the disclosed anti-KLB antibodies were analyzed by FACS analysis using KLB cDNA from mouse, rat, rabbit, cynomolgus monkey and rhesus monkey cloned into pRK mammalian expression vectors transiently transfected into HEK293T cells. The KLB extracellular domain polypeptide sequences that were expressed are as follows: […]

[2] = biological target: T4, rhesus monkey KLB (+N-ter FLAG) (rhesus monkey, UniProt Q86Z14 53-992 (human entry)); experiment: FACS on transfected HEK293T cells
T4 construct: expressed from KLB cDNA on HEK293T cells and read by FACS
T4 chain: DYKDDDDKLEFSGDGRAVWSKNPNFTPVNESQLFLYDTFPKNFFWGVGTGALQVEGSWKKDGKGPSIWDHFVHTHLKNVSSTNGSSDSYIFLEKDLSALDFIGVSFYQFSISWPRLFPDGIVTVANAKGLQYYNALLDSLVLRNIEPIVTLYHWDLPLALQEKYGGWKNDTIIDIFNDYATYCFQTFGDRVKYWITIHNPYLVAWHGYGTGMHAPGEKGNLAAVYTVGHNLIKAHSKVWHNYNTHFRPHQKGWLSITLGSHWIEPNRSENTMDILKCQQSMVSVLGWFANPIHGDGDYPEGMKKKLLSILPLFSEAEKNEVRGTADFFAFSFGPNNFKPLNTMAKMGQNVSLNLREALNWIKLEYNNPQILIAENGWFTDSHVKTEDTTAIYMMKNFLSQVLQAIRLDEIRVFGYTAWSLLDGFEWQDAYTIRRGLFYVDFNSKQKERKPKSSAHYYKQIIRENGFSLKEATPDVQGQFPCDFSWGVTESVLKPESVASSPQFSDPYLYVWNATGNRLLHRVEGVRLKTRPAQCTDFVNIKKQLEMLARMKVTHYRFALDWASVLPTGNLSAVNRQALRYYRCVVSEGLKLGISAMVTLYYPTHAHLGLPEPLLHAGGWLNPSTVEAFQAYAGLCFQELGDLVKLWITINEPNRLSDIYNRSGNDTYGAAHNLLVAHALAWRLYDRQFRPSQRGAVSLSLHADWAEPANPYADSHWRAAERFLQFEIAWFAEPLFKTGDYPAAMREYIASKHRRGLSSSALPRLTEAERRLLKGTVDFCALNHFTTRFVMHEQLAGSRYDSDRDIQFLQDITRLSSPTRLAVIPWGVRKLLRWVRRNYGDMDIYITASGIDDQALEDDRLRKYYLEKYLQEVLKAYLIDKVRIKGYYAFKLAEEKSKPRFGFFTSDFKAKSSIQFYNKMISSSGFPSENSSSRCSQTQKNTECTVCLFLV
Method: as §1

B1: 14E6 (antibody, V domains shown)
VH: EVPLQQSGPELVKPGATVKISCKPSGDTFTEYTMNWVRQSHGKSLEWIGGINPNNGETSYNQKFKGKATLTVDKSSSTAFMDLRILTSEDSAVYFCARKTTNYWGQGTTLIVSS
VL: DIQMTQSPSSLSASLGERVSLTCRASQEISGYLSWLQQKPDGTIKRLIYAASTLDSGVPRRFSGSRSGSDYSLTISSLESEDFADYYCLQYGSYPWTFGGGTKLELK
notes: murine hybridoma-derived anti-KLB antibody
- binding result [1]: binds
- binding result (hKLB-ECD-HIS protein): binds
- binding result (rabbit KLB (+N-ter FLAG)): binds
- binding result [2]: binds

B2: 21H3 (antibody, V domains shown)
VH: QVQLQQPGAEIVKPGASVRLSCKASGYSFTSYWIHWVKQRPGQGLEWIGEIDPSVSNSNYNQKFKGKATLTADKSSSTAYMQLSGLTSEDSAVYFCVRLGVMVYGSSPFWFAYWGQGTLVTVSA
VL: DIVMTQSQKFMSTSVGDRVSITCKASQFVSDAVAWYQQKPGQSPKLLICSASYRYTGVPDRFTGSGSGTDFTFTISSVRTEDLAVYYCQQHYIVPYTFGGGTTLEIE
notes: as for B1
- binding result [1]: binds
- binding result (rabbit KLB (+N-ter FLAG)): binds
- binding result [2]: binds

The next lines start with the values.

- binding result [1]: binds
- binding result (rabbit KLB (+N-ter FLAG)): binds
- binding result [2]: no binding
B3: 46C3 (antibody, V domains shown)
VH: EVQLQQSGAELVKPGASVKLSCTASDFNIIDTYIHWVKQRPEQGLEWIGRIDPANGNTKYDPKFQDKAALTSDTDSNTAYLLFNSLTSEDTAVYYCARGTSYSWFAYWGQGTLVSVSA
VL: AVLMTQTPLSLPVSLGDQASISCRSSQNIVHSDGNTYLEWYLQKPGQSPKLLIYKVSNRFSGVPDRFSGSGSGRDFTLKISRVEAGDLGVYYCFQGSHVLTFGAGTRLELK
notes: as for B1

- binding result [1]: binds
- binding result (hKLB-ECD-HIS protein): binds
- binding result (rabbit KLB (+N-ter FLAG)): no binding
- binding result [2]: binds
B4: 11F1 (antibody, V domains shown)
VH: EVQLVESGGGLVKPGGSLKLSCAPSGFTFSSYGISWVRQTPEKRLEWVATVSSGGRYTYYPDSVKGRFTISRDNAENTLYLQMSSLRSEDTAMYYCTRGGDGYALDYWGQGTSVTVSS
VL: DIQMTQTTSSLSASLGDRVTIICSASQVISNYLNWYQQKPDGTVKLLIYFTSSLRSGVPSRFSGSGSGTDYSLTISNLEPEDVATYFCQQYSKLPWTFGGGTKLELK
notes: as for B1
